Results as given in article doi:10.1101/2024.04.24.590896 (bioRxiv, 2024).

B1: Sec20 SNARE domain (aa 133-198) (domain or fragment)
chain: QTSSSITESLMGISRMMSQQVQQSEEAMQTLVSSSRTLLDANEEFKSMSGTIQLGRKLITKYNRRE
B3: syntaxin 18 SNARE domain (aa 229-312) (domain or fragment)
chain: EEIQMFEQENQRLIGEMNSLFDEVRQIEGKVVEISRLQEIFTEKVLQQETEIDSIHQLVVGATENIKEGNEDIREAIKNNAGFR

Assays:
[1] = target: B3; test: SEC
[2] = target: B1; test: SEC
[3] = target: synaptobrevin 2 (aa 1-96) (Rattus norvegicus, UniProt P63045 1-96); test: native gel or EMSA
[4] = target: B3; test: native gel or EMSA + SEC

synaptobrevin 2 (aa 1-96), sequence (P63045 1-96): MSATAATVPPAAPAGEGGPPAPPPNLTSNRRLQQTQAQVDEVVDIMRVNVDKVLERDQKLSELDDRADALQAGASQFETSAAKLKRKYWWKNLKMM

B1
binding result [1]: binds

B2: Use1 SNARE domain (aa 174-239) (domain or fragment)
chain: QRHQGLQEKLAEEMLGLARSLKTNTLAAQSVIKKDNQTLSHSLKMADQNLEKLKLESERLEQHAQK
binding result [2]: binds
binding result [1]: binds

B3
binding result [3]: binds

B4: U_SNAP (Sec20, aa 133-198; Use1, aa 174-239) (other)
chain: QTSSSITESLMGISRMMSQQVQQSEEAMQTLVSSSRTLLDANEEFKSMSGTIQLGRKLITKYNRREGLSVSPSNKLKSSDAYKKAWGNNQDGVVASQPARVVDEREQMAISGGFIRRVTNDQRHQGLQEKLAEEMLGLARSLKTNTLAAQSVIKKDNQTLSHSLKMADQNLEKLKLESERLEQHAQK
binding result [4]: binds
